Experimental data published in the supplement of paper PMC9876800.

System: peptide library, one residue held at a place counted from the S/T acceptor
Assay: relative phosphorylation of the sub-library (ratio to the mean residue at this position); human; higher = residue favoured
Conditions: Y fixed; at -2
Summary of the method: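 Human or orthologue kinase constructs, purified and recombinant, were incubated under kinase-specific conditions in 384-well plates with biotinylated degenerate peptide sub-libraries. Each sub-library fixed one residue at one position around a central Ser/Thr. Incubations lasted 90 min with peptides at 50 μM and 50 μM ATP spiked with γ-32P-ATP, after which spots on streptavidin membranes were phosphorimaged and quantified by densitometry. Relative sub-library phosphorylation is a ratio to the mean residue at that position.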

Chain of GRK7, construct: Full length (Q8WTQ7 whole entry, looked up): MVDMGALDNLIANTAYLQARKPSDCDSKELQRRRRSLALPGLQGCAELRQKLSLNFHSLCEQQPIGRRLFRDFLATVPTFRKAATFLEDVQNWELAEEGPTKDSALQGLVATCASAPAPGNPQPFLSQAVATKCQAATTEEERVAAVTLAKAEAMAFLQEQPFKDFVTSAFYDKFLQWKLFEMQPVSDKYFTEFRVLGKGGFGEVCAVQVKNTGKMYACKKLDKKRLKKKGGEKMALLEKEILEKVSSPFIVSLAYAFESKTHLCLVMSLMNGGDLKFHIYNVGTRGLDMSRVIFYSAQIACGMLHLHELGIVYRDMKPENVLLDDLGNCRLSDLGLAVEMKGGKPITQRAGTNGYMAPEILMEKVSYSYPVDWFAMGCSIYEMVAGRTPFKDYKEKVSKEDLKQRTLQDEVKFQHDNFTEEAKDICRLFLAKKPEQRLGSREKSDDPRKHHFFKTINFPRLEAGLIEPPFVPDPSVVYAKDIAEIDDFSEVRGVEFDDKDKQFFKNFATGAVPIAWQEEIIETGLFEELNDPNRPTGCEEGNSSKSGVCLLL
Chain of GRK2, construct: Full length (P25098 whole entry, looked up): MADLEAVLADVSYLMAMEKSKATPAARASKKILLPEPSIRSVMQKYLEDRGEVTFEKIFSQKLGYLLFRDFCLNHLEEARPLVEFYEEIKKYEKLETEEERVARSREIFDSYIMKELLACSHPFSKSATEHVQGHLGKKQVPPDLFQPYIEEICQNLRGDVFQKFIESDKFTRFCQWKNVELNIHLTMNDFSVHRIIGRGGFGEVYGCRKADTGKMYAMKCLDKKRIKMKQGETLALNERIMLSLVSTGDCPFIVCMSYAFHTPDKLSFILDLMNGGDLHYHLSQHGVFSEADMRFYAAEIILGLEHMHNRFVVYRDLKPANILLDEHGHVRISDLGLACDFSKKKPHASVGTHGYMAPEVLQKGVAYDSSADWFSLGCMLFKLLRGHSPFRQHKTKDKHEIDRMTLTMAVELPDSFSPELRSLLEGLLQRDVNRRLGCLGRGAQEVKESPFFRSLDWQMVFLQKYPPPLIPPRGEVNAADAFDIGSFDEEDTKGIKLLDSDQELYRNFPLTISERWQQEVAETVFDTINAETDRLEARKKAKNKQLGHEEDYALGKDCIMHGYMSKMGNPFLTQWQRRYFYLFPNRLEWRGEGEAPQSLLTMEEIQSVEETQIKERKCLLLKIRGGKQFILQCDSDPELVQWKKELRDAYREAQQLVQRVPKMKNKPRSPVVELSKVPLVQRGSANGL
Chain of SGK3, construct: aa119-end (Q96BR1 119-496, looked up): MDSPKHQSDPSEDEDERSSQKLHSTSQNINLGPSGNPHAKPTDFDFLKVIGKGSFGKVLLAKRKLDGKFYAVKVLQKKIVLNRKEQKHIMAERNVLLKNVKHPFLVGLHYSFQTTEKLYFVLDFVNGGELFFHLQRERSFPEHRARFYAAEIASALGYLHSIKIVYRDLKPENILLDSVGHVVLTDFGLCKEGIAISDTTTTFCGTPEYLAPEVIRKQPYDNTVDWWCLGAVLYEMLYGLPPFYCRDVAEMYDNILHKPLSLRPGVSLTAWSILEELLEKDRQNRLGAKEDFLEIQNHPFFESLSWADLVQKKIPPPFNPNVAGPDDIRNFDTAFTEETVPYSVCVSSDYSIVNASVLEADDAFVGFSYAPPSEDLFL
Chain of NEK11, construct: Full length (Q8NG66 whole entry, looked up): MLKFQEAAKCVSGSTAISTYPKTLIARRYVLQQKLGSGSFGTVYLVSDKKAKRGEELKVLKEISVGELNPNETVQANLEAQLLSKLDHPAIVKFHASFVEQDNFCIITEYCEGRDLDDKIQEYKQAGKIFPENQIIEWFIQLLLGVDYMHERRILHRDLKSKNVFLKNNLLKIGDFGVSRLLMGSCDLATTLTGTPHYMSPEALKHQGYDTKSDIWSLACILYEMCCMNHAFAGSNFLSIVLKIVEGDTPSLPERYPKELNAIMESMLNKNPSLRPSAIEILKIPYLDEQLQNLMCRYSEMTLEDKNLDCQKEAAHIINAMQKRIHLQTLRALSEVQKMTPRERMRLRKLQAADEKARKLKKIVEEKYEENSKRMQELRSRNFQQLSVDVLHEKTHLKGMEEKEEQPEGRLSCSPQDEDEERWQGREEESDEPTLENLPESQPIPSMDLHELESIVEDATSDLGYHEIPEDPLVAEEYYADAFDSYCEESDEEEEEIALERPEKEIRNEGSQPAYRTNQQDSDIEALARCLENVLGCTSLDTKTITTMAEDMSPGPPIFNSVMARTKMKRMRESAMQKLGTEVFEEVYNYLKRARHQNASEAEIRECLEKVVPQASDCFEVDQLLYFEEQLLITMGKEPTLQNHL
Chain of TP53RK, construct: Full length (Q96S44 whole entry, looked up): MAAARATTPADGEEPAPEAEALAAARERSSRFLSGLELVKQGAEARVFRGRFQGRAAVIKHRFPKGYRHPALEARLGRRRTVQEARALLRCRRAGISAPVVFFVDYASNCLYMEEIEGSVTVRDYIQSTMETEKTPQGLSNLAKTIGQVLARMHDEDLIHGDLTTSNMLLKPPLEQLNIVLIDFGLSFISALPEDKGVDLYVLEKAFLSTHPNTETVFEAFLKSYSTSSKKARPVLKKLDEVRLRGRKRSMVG
Chain of AURKB, construct: Full length (Q96GD4 whole entry, looked up): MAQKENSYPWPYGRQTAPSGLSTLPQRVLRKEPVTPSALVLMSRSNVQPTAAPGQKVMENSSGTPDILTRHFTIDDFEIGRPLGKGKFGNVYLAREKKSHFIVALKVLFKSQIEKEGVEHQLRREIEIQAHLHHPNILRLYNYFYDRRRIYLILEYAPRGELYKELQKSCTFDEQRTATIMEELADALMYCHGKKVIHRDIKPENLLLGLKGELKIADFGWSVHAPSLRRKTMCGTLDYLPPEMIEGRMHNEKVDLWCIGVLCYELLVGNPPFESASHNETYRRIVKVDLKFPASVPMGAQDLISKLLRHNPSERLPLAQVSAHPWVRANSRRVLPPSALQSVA
Chain of NEK4, construct: Full length (P51957 whole entry, looked up): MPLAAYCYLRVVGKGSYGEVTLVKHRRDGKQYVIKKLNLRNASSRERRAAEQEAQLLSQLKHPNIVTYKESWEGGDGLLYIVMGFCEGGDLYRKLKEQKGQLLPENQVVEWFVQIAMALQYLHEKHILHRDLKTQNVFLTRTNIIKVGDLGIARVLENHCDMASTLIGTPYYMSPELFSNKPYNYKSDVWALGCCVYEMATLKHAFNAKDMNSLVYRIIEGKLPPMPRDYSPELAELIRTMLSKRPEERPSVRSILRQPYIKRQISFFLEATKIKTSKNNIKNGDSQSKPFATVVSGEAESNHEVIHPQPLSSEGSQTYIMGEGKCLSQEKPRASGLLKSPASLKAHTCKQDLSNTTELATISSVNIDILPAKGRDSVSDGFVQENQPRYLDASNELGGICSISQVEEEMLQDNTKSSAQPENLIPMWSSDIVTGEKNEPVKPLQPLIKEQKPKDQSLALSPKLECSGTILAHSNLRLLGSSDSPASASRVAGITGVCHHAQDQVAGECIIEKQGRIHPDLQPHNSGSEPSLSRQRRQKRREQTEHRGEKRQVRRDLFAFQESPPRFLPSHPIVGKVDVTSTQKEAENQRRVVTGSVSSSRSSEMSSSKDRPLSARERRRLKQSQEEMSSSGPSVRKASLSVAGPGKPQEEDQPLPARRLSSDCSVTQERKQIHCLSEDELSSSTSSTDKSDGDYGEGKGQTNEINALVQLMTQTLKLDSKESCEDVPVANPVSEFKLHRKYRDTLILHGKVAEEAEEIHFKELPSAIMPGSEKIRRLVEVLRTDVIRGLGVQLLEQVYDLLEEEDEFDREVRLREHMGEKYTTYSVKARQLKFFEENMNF

| Substance | relative phosphorylation |
| --- | --- |
| AURKB, construct: Full length (from UniProt Q96GD4) | 0.276 |
| SGK3, construct: aa119-end (from UniProt Q96BR1) | 0.497 |
| GRK7, construct: Full length (from UniProt Q8WTQ7) | 0.737 |

Same assay, conditions: Y fixed; at -3

| Substance | relative phosphorylation |
| --- | --- |
| NEK11, construct: Full length (from UniProt Q8NG66) | 1.21 |
| MKNK1, construct: Full length (D165-205) (from UniProt Q9BUB5) | 0.557 |
| TP53RK, construct: Full length (from UniProt Q96S44) | 0.996 |
| GRK2, construct: Full length (from UniProt P25098) | 0.787 |
| NEK4, construct: Full length (from UniProt P51957) | 0.921 |
| AURKB, construct: Full length (from UniProt Q96GD4) | 0.665 |
| SGK3, construct: aa119-end (from UniProt Q96BR1) | 0.545 |
| GRK7, construct: Full length (from UniProt Q8WTQ7) | 0.623 |

Same assay, conditions: Y fixed; at -4

| Substance | relative phosphorylation |
| --- | --- |
| NEK11, construct: Full length (from UniProt Q8NG66) | 1.03 |
| MKNK1, construct: Full length (D165-205) (from UniProt Q9BUB5) | 0.891 |
| TP53RK, construct: Full length (from UniProt Q96S44) | 0.922 |
| GRK2, construct: Full length (from UniProt P25098) | 0.932 |
| NEK4, construct: Full length (from UniProt P51957) | 1 |
| AURKB, construct: Full length (from UniProt Q96GD4) | 0.798 |
| SGK3, construct: aa119-end (from UniProt Q96BR1) | 0.731 |
| GRK7, construct: Full length (from UniProt Q8WTQ7) | 0.61 |

Same assay, conditions: Y fixed; at -5

| Substance | relative phosphorylation |
| --- | --- |
| NEK11, construct: Full length (from UniProt Q8NG66) | 1.13 |
| MKNK1, construct: Full length (D165-205) (from UniProt Q9BUB5) | 1.01 |
| TP53RK, construct: Full length (from UniProt Q96S44) | 1.05 |
| GRK2, construct: Full length (from UniProt P25098) | 1.18 |
| NEK4, construct: Full length (from UniProt P51957) | 1.08 |
| AURKB, construct: Full length (from UniProt Q96GD4) | 0.831 |
| SGK3, construct: aa119-end (from UniProt Q96BR1) | 0.831 |
| GRK7, construct: Full length (from UniProt Q8WTQ7) | 0.753 |

Same assay, conditions: pThr fixed; at +1

| Substance | relative phosphorylation |
| --- | --- |
| NEK11, construct: Full length (from UniProt Q8NG66) | 0.998 |
| MKNK1, construct: Full length (D165-205) (from UniProt Q9BUB5) | 0.668 |
| TP53RK, construct: Full length (from UniProt Q96S44) | 0.977 |
| GRK2, construct: Full length (from UniProt P25098) | 7.25 |
| NEK4, construct: Full length (from UniProt P51957) | 0.423 |
| AURKB, construct: Full length (from UniProt Q96GD4) | 0.88 |
| SGK3, construct: aa119-end (from UniProt Q96BR1) | 0.681 |
| GRK7, construct: Full length (from UniProt Q8WTQ7) | 2.52 |

Same assay, conditions: pThr fixed; at +2

| Substance | relative phosphorylation |
| --- | --- |
| NEK11, construct: Full length (from UniProt Q8NG66) | 1.15 |
| MKNK1, construct: Full length (D165-205) (from UniProt Q9BUB5) | 0.629 |
| TP53RK, construct: Full length (from UniProt Q96S44) | 0.952 |
| GRK2, construct: Full length (from UniProt P25098) | 1.18 |
| NEK4, construct: Full length (from UniProt P51957) | 0.506 |
| AURKB, construct: Full length (from UniProt Q96GD4) | 0.581 |
| SGK3, construct: aa119-end (from UniProt Q96BR1) | 0.529 |
| GRK7, construct: Full length (from UniProt Q8WTQ7) | 1.05 |

Same assay, conditions: pThr fixed; at +3

| Substance | relative phosphorylation |
| --- | --- |
| NEK11, construct: Full length (from UniProt Q8NG66) | 1.06 |
| MKNK1, construct: Full length (D165-205) (from UniProt Q9BUB5) | 0.564 |
| TP53RK, construct: Full length (from UniProt Q96S44) | 0.886 |
| GRK2, construct: Full length (from UniProt P25098) | 1.22 |
| NEK4, construct: Full length (from UniProt P51957) | 0.526 |
| AURKB, construct: Full length (from UniProt Q96GD4) | 0.555 |
| SGK3, construct: aa119-end (from UniProt Q96BR1) | 0.661 |
| GRK7, construct: Full length (from UniProt Q8WTQ7) | 1.66 |

Same assay, conditions: pThr fixed; at +4

| Substance | relative phosphorylation |
| --- | --- |
| NEK11, construct: Full length (from UniProt Q8NG66) | 0.672 |
| MKNK1, construct: Full length (D165-205) (from UniProt Q9BUB5) | 1.11 |
| TP53RK, construct: Full length (from UniProt Q96S44) | 1.03 |
| GRK2, construct: Full length (from UniProt P25098) | 1.95 |
| NEK4, construct: Full length (from UniProt P51957) | 0.476 |
| AURKB, construct: Full length (from UniProt Q96GD4) | 1.08 |
| SGK3, construct: aa119-end (from UniProt Q96BR1) | 0.81 |
| GRK7, construct: Full length (from UniProt Q8WTQ7) | 3.54 |

Same assay, conditions: pThr fixed; at -1

| Substance | relative phosphorylation |
| --- | --- |
| NEK11, construct: Full length (from UniProt Q8NG66) | 0.94 |
| MKNK1, construct: Full length (D165-205) (from UniProt Q9BUB5) | 0.278 |
| TP53RK, construct: Full length (from UniProt Q96S44) | 1.06 |
| GRK2, construct: Full length (from UniProt P25098) | 1.18 |
| NEK4, construct: Full length (from UniProt P51957) | 0.332 |
| AURKB, construct: Full length (from UniProt Q96GD4) | 0.413 |
| SGK3, construct: aa119-end (from UniProt Q96BR1) | 0.359 |
| GRK7, construct: Full length (from UniProt Q8WTQ7) | 1.01 |

Same assay, conditions: pThr fixed; at -2

| Substance | relative phosphorylation |
| --- | --- |
| NEK11, construct: Full length (from UniProt Q8NG66) | 1.38 |
| MKNK1, construct: Full length (D165-205) (from UniProt Q9BUB5) | 0.387 |
| TP53RK, construct: Full length (from UniProt Q96S44) | 1.08 |
| GRK2, construct: Full length (from UniProt P25098) | 3.63 |
| NEK4, construct: Full length (from UniProt P51957) | 0.64 |
| AURKB, construct: Full length (from UniProt Q96GD4) | 0.314 |
| SGK3, construct: aa119-end (from UniProt Q96BR1) | 0.512 |
| GRK7, construct: Full length (from UniProt Q8WTQ7) | 3.79 |

Same assay, conditions: pThr fixed; at -3

| Substance | relative phosphorylation |
| --- | --- |
| NEK11, construct: Full length (from UniProt Q8NG66) | 1.37 |
| MKNK1, construct: Full length (D165-205) (from UniProt Q9BUB5) | 0.511 |
| TP53RK, construct: Full length (from UniProt Q96S44) | 0.987 |
| GRK2, construct: Full length (from UniProt P25098) | 3.44 |
| NEK4, construct: Full length (from UniProt P51957) | 0.735 |
| AURKB, construct: Full length (from UniProt Q96GD4) | 0.591 |
| SGK3, construct: aa119-end (from UniProt Q96BR1) | 0.367 |
| GRK7, construct: Full length (from UniProt Q8WTQ7) | 2.48 |

Same assay, conditions: pThr fixed; at -4

| Substance | relative phosphorylation |
| --- | --- |
| NEK11, construct: Full length (from UniProt Q8NG66) | 1.47 |
| MKNK1, construct: Full length (D165-205) (from UniProt Q9BUB5) | 0.639 |
